T1: rhOX40-Avi-His (human, UniProt P43489 29-214)
T1 construct: range 29-214; Recombinant protein made from plasmid pCD-OX40-Avi-His; also called OX40抗原; 抗原蛋白OX40; not shown: Avi tag; His tag
T1 sequence (looked up): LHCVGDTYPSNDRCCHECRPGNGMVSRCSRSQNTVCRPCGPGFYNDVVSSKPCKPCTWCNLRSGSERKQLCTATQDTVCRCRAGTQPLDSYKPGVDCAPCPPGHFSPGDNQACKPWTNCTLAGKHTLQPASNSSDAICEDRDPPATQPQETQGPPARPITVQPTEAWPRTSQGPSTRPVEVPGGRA

T2: human OX40 expressed on Jurkat cells (Jurkat-OX40-NFκB-Luc) (human, UniProt P43489 29-277)
T2 construct: whole, on cells; also called Jurkat-OX40-NFκB-21C6; 表达OX40抗原的Jurkat细胞系
T2 sequence (looked up): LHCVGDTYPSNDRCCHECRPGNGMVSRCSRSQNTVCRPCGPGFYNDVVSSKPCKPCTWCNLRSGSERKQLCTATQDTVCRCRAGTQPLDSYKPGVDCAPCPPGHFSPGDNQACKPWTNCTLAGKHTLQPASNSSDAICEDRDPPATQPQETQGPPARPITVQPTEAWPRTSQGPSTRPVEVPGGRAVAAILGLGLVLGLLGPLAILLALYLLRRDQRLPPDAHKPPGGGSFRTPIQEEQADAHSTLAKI

T3: rhOX40-Avi-His-bio (human, UniProt P43489 29-214, biotin covalently attached to the Avi tag by BirA)
T3 construct: range 29-214; Biotinylated form of rhOX40-Avi-His, captured on SA chip in SPR; also called 生物素标记的抗原; not shown: Avi tag (biotinylated); His tag
T3 sequence (looked up): T1 sequence (looked up)

B1: D12-Fc (Fc fusion)
chain: DVQLVESGGGLVQPGGSLRLSCAASGRQFGSYAMSWFRQAPGKGREWVSTIDSAGGSTNYADSVKGRFTISRDNAKNTVYLQMNSLRAEDTAVYYCARLIDWYCIDYFDYWGQGTQVTVSA
notes: not shown: IgG1 Fc region, from human
B2: A1-Fc (Fc fusion)
chain: DVQLVESGGGLVQPGGSLRLSCAASGFSYNRTDIRWFRQAPGKGRELVAGIANWGGTTYYADSVKGRFTISRDNAKNTVYLQMNSLRAEDTAVYYCARRRYECVDWIVDPWWDYWGQGTQVTVSA
notes: as for B1
B3: D1-Fc (Fc fusion)
chain: DVQLVESGGGLVQPGGSLRLSCAASGRTASGYTIGWFRQAPGKGRELVSAINRAGSATHYADSVKGRFTISRDNAKNTVYLQMNSLRAEDTAVYYCARSGRWGRYWLAYWGQGTQVTVSA
notes: as for B1
B4: D2-Fc (Fc fusion)
chain: DVQLVESGGGLVQPGGSLRLSCAASGLTSSLYIWGWFRQAPGKGREWVSTIWDADVTDYADSVKGRFTISRDNAKNTVYLQMNSLRAEDTAVYYCARRDFDSLADGLDYWGQGTQVTVSA
notes: as for B1
B5: C7-Fc (Fc fusion)
chain: DVQLVESGGGLVQPGGSLRLSCAASGSIPSDTAMYWFRQAPGKGREWVSVIWGSGVTYYADSVKGRFTISRDNAKNTVYLQMNSLRAEDTAVYYCARTGLGRAYWGQGTQVTVSA
notes: as for B1
B6: D7-Fc (Fc fusion)
chain: DVQLVESGGGLVQPGGSLRLSCAASGFTASIYGMRWFRQAPGKGRELVAGIVDAGSATYYADSVKGRFTISRDNAKNTVYLQMNSLRAEDTAVYYCARGNHEGEVGLDYWGQGTQVTVSA
notes: as for B1

molecular target: T1, rhOX40-Avi-His; test: ELISA on coated rhOX40-Avi-His

Binder | binding result
B1 | binds
B2 | binds
B3 | binds
B4 | binds
B5 | binds

molecular target: T2, human OX40 expressed on Jurkat cells …; test: flow cytometry on Jurkat cells expressing OX40, anti-human Fc-FITC

Binder | binding result
B2 | binds
B3 | binds
B4 | binds

molecular target: T3, rhOX40-Avi-His-bio; test: SPR (T200), biotinylated rhOX40-Avi-His-bio captured on SA chip, D7-Fc as analyte

Binder | Kd [nM]
B6 | ~16.8
